In paper PMC6016464, “Folding and binding pathways of BH3-only proteins are encoded within their intrinsically disordered sequence, not templated by partner proteins” (The Journal of Biological Chemistry, 2018):
Where no end group is shown, it is not given here. The star is where a group is joined. TAMRA = 5-carboxytetramethylrhodamine, CN(C)c1ccc2c(-c3ccc(C(=O)*)cc3C(=O)[O-])c3ccc(=[N+](C)C)cc-3oc2c1

T1: A1 protein (mouse, residues 1-152, P104K C113S, used as wild type) (mouse)
T1 sequence (Q07440 1-152 with P104K C113S, looked up): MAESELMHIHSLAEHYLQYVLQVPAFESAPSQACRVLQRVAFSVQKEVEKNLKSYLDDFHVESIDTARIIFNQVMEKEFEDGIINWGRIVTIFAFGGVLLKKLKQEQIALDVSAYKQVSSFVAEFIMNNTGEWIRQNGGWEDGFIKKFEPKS

T2: MCL-1 (mouse, residues 152-308) (mouse)
T2 construct: remnant of thrombin cleavage at the N-terminus of MCL-1; MCL-1, mouse, residues 152-308, UniProt P97287; source: E. coli C41 pLysS, purified (Ni2+ agarose, thrombin cleavage, ion exchange, Superdex G75 gel filtration); not shown: His6, N-terminal, cleaved
T2 chain: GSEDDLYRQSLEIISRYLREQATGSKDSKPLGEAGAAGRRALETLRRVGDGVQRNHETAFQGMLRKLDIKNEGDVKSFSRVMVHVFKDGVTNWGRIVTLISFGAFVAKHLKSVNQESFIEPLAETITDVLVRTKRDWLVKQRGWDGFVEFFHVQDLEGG


Legend:
[1] = molecular target: T1, A1 protein (mouse, residues 1-152, P104K C113S, used as wild type) (mouse); assay: stopped-flow fluorescence kinetics; association; TAMRA-labelled peptide with folded partner at least 10-fold higher (pseudo-first-order); kon from the gradient of kobs versus partner concentration; 25 °C; 50 mM sodium phosphate, 0.05% (v/v) Tween 20, pH 7.0
[2] = molecular target: T1, A1 protein (mouse, residues 1-152, P104K C113S, used as wild type) (mouse); assay: stopped-flow fluorescence kinetics + other: fluorescence dissociation kinetics with competitor; Kd calculated as the ratio koff/kon of the kinetic rate constants; 25 °C; 50 mM sodium phosphate, 0.05% (v/v) Tween 20, pH 7.0
[3] = molecular target: T1, A1 protein (mouse, residues 1-152, P104K C113S, used as wild type) (mouse); assay: fluorescence dissociation kinetics with competitor; dissociation; preformed complex of TAMRA-labelled peptide and partner protein mixed with excess unlabeled PUMA peptide as competitor; stopped-flow or Cary Eclipse spectrophotometer; 25 °C; 50 mM sodium phosphate, 0.05% (v/v) Tween 20, pH …
[4] = molecular target: T2, MCL-1 (mouse, residues 152-308); assay: stopped-flow fluorescence kinetics + other: fluorescence dissociation kinetics with competitor; Kd calculated as the ratio koff/kon of the kinetic rate constants; 25 °C; 50 mM sodium phosphate, 0.05% (v/v) Tween 20, pH 7.0; conditions: both partners purified
[5] = molecular target: T2, MCL-1 (mouse, residues 152-308); assay: stopped-flow fluorescence kinetics; association; TAMRA-labelled peptide with folded partner at least 10-fold higher (pseudo-first-order); kon from the gradient of kobs versus partner concentration; 25 °C; 50 mM sodium phosphate, 0.05% (v/v) Tween 20, pH 7.0; conditions: both partners purified
How it was run: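 The association rate constant is the slope of observed rate versus partner concentration, from stopped-flow fluorescence of TAMRA-labelled peptide with mouse MCL-1 (residues 152–308). The partner was in at least 10-fold excess, in 50 mM sodium phosphate, 0.05% (v/v) Tween 20, pH 7.0, at 25 °C. Excitation was at 555 nm with emission above 570 nm, and each observed rate came from a single-exponential fit.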

[6] = molecular target: T2, MCL-1 (mouse, residues 152-308); assay: fluorescence dissociation kinetics with competitor; dissociation; preformed complex of TAMRA-labelled peptide and partner protein mixed with excess unlabeled PUMA peptide as competitor; stopped-flow or Cary Eclipse spectrophotometer; 25 °C; 50 mM sodium phosphate, 0.05% (v/v) Tween 20, pH 7.0; conditions: both partners purified
How it was run: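 The dissociation rate constant (koff) was found by displacing TAMRA-labelled peptide from its preformed complex with mouse MCL-1 (residues 152–308) using a range of unlabelled competitor peptide concentrations. Experiments were run at 25 °C in 50 mM sodium phosphate, 0.05% (v/v) Tween 20, pH 7.0, on a stopped-flow instrument when kobs was above 0.03 s^−1 and on a Cary Eclipse when kobs was below 0.03 s^−1. Each fluorescence trace was fit to a single exponential, and once competitor was in sufficient excess, the kobs values that no longer depended on concentration were averaged to give koff.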

Binder | kon [1] [M⁻¹ s⁻¹] | Kd [2] [nM] | koff [3] [s⁻¹] | Kd [4] [nM] | kon [5] [M⁻¹ s⁻¹] | koff [6] [s⁻¹]
{TAMRA}-RVEEEEWAREIGAQLRRAADDLNAQYERRRQEEQH [PUMA peptide (mouse, residues 127-161, M144A, used as wild type), TAMRA-labelled] | 5.9e+06 | 0.085 | 0.0005 | – | – | –
{TAMRA}-SESQEEIIHNIARHLAQIGDEMDHNIQPTLVRQLA (BID, mouse, residues 76-110, UniProt P70444; also called WT; source: synthetic peptide (Biomatik)) [BID peptide (mouse, residues 76-110), TAMRA-labelled] | 8.2e+06 | 0.019 | 0.000155 | 0.33 | 8.9e+06 | 0.003
{TAMRA}-SESQEEIIHNIARHLAQIGDAMDHNIQPTLVRQLA (peptide, UniProt P70444 76-110, looked up, BID, mouse, residues 76-110, UniProt P70444; source: synthetic peptide (Biomatik)) [BID E96A peptide, TAMRA-labelled] | 1e+07 | 0.015 | 0.000146 | 0.38 | 9.9e+06 | 0.0038
{TAMRA}-SESQEEIIHNIARHLAQIGDGMDHNIQPTLVRQLA (peptide, UniProt P70444 76-110, looked up, BID, mouse, residues 76-110, UniProt P70444; source: synthetic peptide (Biomatik)) [BID E96G peptide, TAMRA-labelled] | 7.8e+06 | 0.098 | 0.00077 | 0.9 | 1.09e+07 | 0.01
{TAMRA}-SESQEEIIHNIARHLAQIGDEMDANIQPTLVRQLA (peptide, UniProt P70444 76-110, looked up, BID, mouse, residues 76-110, UniProt P70444; source: synthetic peptide (Biomatik)) [BID H99A peptide, TAMRA-labelled] | – | – | – | 0.12 | 9.2e+06 | 0.001
{TAMRA}-SESQEEIIHNIARHLAQIGDEMDGNIQPTLVRQLA (peptide, UniProt P70444 76-110, looked up, BID, mouse, residues 76-110, UniProt P70444; source: synthetic peptide (Biomatik)) [BID H99G peptide, TAMRA-labelled] | – | – | – | 0.4 | 9e+06 | 0.004
{TAMRA}-SESQEEAIHNIARHLAQIGDEMDHNIQPTLVRQLA (peptide, UniProt P70444 76-110, looked up, BID, mouse, residues 76-110, UniProt P70444; source: synthetic peptide (Biomatik)) [BID I82A peptide, TAMRA-labelled] | – | – | – | 0.65 | 9.5e+06 | 0.0062
{TAMRA}-SESQEEIIHNAARHLAQIGDEMDHNIQPTLVRQLA (peptide, UniProt P70444 76-110, looked up, BID, mouse, residues 76-110, UniProt P70444; source: synthetic peptide (Biomatik)) [BID I86A peptide, TAMRA-labelled] | 2.9e+06 | 7.6 | 0.022 | 35 | 4e+06 | 0.14
{TAMRA}-SESQEEIIHNAARHLAQIGDEADHNIQPTLVRQLA (peptide, UniProt P70444 76-110, looked up, BID, mouse, residues 76-110, UniProt P70444; source: synthetic peptide (Biomatik)) [BID I86A-M97A peptide, TAMRA-labelled] | 2.2e+06 | 50 | 0.11 | 390 | 3.5e+06 | 1.36
{TAMRA}-SESQEEIIHNIARHLAQAGDEMDHNIQPTLVRQLA (peptide, UniProt P70444 76-110, looked up, BID, mouse, residues 76-110, UniProt P70444; source: synthetic peptide (Biomatik)) [BID I93A peptide, TAMRA-labelled] | 5.6e+06 | 0.44 | 0.0025 | 96 | 4.5e+06 | 0.43
{TAMRA}-SESQEEIIHNIARHLAQIGDEADHNIQPTLVRQLA (peptide, UniProt P70444 76-110, looked up, BID, mouse, residues 76-110, UniProt P70444; source: synthetic peptide (Biomatik)) [BID M97A peptide, TAMRA-labelled] | 8.1e+06 | 0.19 | 0.0015 | 3.8 | 7.8e+06 | 0.03
{TAMRA}-SESQEEIIHNIAAHLAQIGDEMDHNIQPTLVRQLA (peptide, UniProt P70444 76-110, looked up, BID, mouse, residues 76-110, UniProt P70444; source: synthetic peptide (Biomatik)) [BID R88A peptide, TAMRA-labelled] | 5.3e+06 | 0.16 | 0.00088 | 0.6 | 1e+07 | 0.0063
{TAMRA}-SESQEEIIHNIAGHLAQIGDEMDHNIQPTLVRQLA (peptide, UniProt P70444 76-110, looked up, BID, mouse, residues 76-110, UniProt P70444; source: synthetic peptide (Biomatik)) [BID R88G peptide, TAMRA-labelled] | 4.9e+06 | 0.6 | 0.00303 | 1.8 | 8.3e+06 | 0.015
{TAMRA}-RVEEEEWAREIGAQLRRAADDLNAQAERRRQEEQH [PUMA Y152A peptide (on the M144A wild type), TAMRA-labelled] | 5.1e+06 | 0.49 | 0.00251 | – | – | –
